From paper PMC2116103

Target: IGF1 receptor on embryonic chick spinal cord motoneurons (chick (endogenous in E6 spinal cord motoneurons))

Row | neurite growth from E6 chick motoneurons in vitro, half-maximal effect [nM] | neurite growth from E6 chick motoneurons in vitro, half-maximal response [nM] | Substance
1 | 20 | – | Bovine pancreatic insulin (ligand)
2 | 0.2 | – | Highly purified human IGF2 (insulin-like growth factor 2), unlabeled (from UniProt P01344 25-91) (ligand)
3 | – | 0.2 | Recombinant human IGF1 (insulin-like growth factor 1), unlabeled (from UniProt P05019 22-118) (ligand)
